No end group written: not given here.
Target: T1, Thrombin (Homo sapiens, UniProt P00734)
T1 construct: purchased Boehringer Mannheim
Experiment: Determination of the inhibition of thrombin (Chromozym TH chromogenic substrate, absorption at 405 nm)
Assay type: biochemical
Conditions: periplasmic expression in E. coli DH 5α, fusion protein with maltose binding protein
Procedure: The purification of the proteins can be followed by a thrombin activity assay. It is expedient to use for this an optical assay in which a chromogenic substrate, for example Chromozym TH, is converted by thrombin. The fractions containing the novel proteins can be identified on addition to this optical assay by their thrombin-inhibiting action.
Thrombin (Boehringer Mannheim) was dissolved to a final concentration of 25 mU/ml in phosphate-buffered saline (PBS) ([…] NaCl; 0.2 g/1 […]; 0.144 g/l sodium phosphate; 0.2 g/l potassium phosphate, pH 7.5).
Chromozym TH (Boehringer Mannheim) was dissolved in 20 ml of H2 O/vial.
50 μl of thrombin solution and 100 μl of Chromozym plus 25 μl of sample or buffer were placed in the wells of a microtiter plate. The absorption at 405 nm was measured immediately thereafter at time 0 and after 30 minutes at 37° C.
The thrombin activity leads to liberation from the chromogenic substrate of a dye which absorbs at 405 nm. The inhibition of thrombin by a thrombin inhibitor is evident from a smaller increase in absorption at 405 nm and was quantified using a calibration plot.

- concentration of the thrombin inhibitor: 1250 units per liter of culture medium
Substance: thrombin inhibitor: recombinant protein, SEQ ID NO: 23 position 1 to 57, expressed in E. coli as fusion protein with maltose binding protein (MFSTKMFVVFVAVCICVTQSIRFGMGKVPCPDGEVGYTCDCGEKICLYGQSCNDGQC; cysteine pairing not given here; also: expressed as fusion protein with maltose binding protein)

From patent US5455181A, “Thrombin-inhibitory proteins from terrestrial leeches” (BASF Aktiengesellschaft, priority 1991, dated 1995)
